For test [1], the target named is T-ZZ (transmembrane/translocation (T) domain of diphtheria toxin fused at its C-terminus with ZZ, a small portion of protein A) (UniProt P00588). The test is described as follows: slope of FIG. 6B, 2.78 nM AgMMUA-IgG, T-ZZ at 0.21 molecules/um^2 on living cells.
For test [2] the target is unchanged. The test is described as follows: slope of FIG. 6A in the first 60 min, 2.78 nM AgMMUA-IgG, T-ZZ at 0.37 molecules/um^2 on living cells.
The target is the same in test [3]. The test is described as follows: single nanoparticle imaging on living cells with T-ZZ, value given in the summary.
Test [4] shares this target. The test is described as follows: counting single bound nanoparticles on living cells with T-ZZ against time (SNOMS, FIG. 6A).
For test [5] the target is unchanged. Kind of test: isotherm of the fraction of bound T-ZZ on living cells against AgMMUA-IgG concentration at equilibrium (SNOMS).
Test [6] has the same target. The test is described as follows: slope of FIG. 6A in the first 60 min, 11.12 nM AgMMUA-IgG, T-ZZ at 0.37 molecules/um^2 on living cells.
In test [7] the target is protein A (PrA) from Staphylococcus aureus (Staphylococcus aureus) (UniProt P38507). The test is described as follows: UV-vis absorbance change, 1.1 nM AgMMUA-IgG with about 100 nM PrA in PBS.
Test [8] concerns the target T-ZZ (transmembrane/translocation (T) domain of diphtheria toxin fused at its C-terminus with ZZ, a small portion of protein A) (UniProt P00588). Kind of test: slope of FIG. 6A in the first 60 min, 5.56 nM AgMMUA-IgG, T-ZZ at 0.37 molecules/um^2 on living cells.
Test [9] has as its target protein A (PrA) from Staphylococcus aureus (Staphylococcus aureus) (UniProt P38507). Kind of test: UV-vis absorbance against time, slope of FIG. 3C.
For test [10] the target is unchanged. The test is described as follows: UV-vis absorbance against time, simulation matched to the data of FIG. 3B.
The target is the same in test [11]. The test is described as follows: UV-vis absorbance, average of equilibrium and kinetic methods, three repeats.
Test [12] concerns the target T-ZZ (transmembrane/translocation (T) domain of diphtheria toxin fused at its C-terminus with ZZ, a small portion of protein A) (UniProt P00588). Kind of test: slope of FIG. 6A in the first 60 min, 1.39 nM AgMMUA-IgG, T-ZZ at 0.37 molecules/um^2 on living cells.

Sequence of UniProt P00588 (P00588 234-410): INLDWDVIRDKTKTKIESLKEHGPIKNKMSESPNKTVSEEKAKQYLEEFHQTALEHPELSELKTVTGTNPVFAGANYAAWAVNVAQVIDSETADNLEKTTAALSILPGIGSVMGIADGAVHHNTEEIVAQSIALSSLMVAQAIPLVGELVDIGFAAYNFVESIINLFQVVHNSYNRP

In the case of “AgMMUA-IgG nanoparticles (immunoglobulin G from rabbit serum covalently conjugated to 11.6 nm Ag nanoparticles carrying a mixed MUA/MCH monolayer) (antibody)”, the binding rate (molecules/min) came to 2.3 in test [1]; 5.3 in test [2]; 27 in test [6]; 20 in test [8]; 3 in test [12]. Moreover, the Ka in test [3] turned out to be 4.3e+07 M⁻¹; in test [4] it was 3e+07 M⁻¹; in test [5] it was 4.8e+07 M⁻¹; in test [11], 1.9e+06 M⁻¹. In addition, the koff in [4] is 0.0003 s⁻¹; in [10], 5.4e-05 s⁻¹. Further, the kon worked out at 9000 M⁻¹ s⁻¹ in test [4] and 120 M⁻¹ s⁻¹ in [9]. In [7], this substance had an amount of AgMMUA-IgG nanoparticles bound with PrA at equilibrium of 0.14 nM.

By koff is commonly meant the first-order rate constant of dissociation. Low readings indicate slow dissociation, high ones fast dissociation. Broadly, the kon is the second-order rate constant of association.
